Data published in patent publication US20220389097A1 (Genentech, published 2022).

Assays:
[1] = target: T1, soluble monomeric human TREM2 (human, UniProt Q9NZC2 19-174, limits assumed); experiment: SPR (Biacore T200), 37 C; IgG on anti-CH1 chip, soluble monomeric TREM2
T1 construct: Not the same as shed sTREM2; also called soluble monomeric TREM2
T1 sequence: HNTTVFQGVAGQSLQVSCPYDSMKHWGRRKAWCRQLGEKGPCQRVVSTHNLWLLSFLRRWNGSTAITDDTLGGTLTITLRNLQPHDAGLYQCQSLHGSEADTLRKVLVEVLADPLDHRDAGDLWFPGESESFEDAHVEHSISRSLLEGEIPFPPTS

human TREM2 on cells [2] = target: T2, human TREM2 on cells (human, UniProt Q9NZC2 19-230); experiment: cell-based or functional assay
T2 sequence: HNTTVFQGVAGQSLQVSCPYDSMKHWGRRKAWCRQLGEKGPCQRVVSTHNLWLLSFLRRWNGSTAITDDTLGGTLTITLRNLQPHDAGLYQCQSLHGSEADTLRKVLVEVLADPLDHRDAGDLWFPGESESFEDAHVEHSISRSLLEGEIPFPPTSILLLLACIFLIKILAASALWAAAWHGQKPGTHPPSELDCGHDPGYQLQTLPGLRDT

[3] = target: T3, soluble human TREM2 (sTREM2) (human, UniProt Q9NZC2 19-157); experiment: sandwich ELISA: test antibody coated as capture, sTREM2 from BMDM culture supernatant, biotinylated 3.17A9 as detection
T3 construct: also called soluble TREM2; TREM2 ectodomain
T3 sequence: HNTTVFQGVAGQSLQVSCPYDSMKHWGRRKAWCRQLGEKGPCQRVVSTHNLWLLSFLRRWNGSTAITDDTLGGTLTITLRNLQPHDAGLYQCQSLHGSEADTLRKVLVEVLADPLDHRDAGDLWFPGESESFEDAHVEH
Source text: For example, as shown in an Example 11 herein, the human TREM2 ELISA assay measured binding of antibodies to sTREM2 by coating onto plate wells the antibody to be tested as capture reagents and with biotinylated IgV-reactive monoclonal antibody 3.17A9 used as the detection reagent. Control antibody 1.16B8 was used as a positive control antibody to establish the standard for sTREM2 binding.
A human TREM2 ELISA assay was used to measure binding of more than forty antibodies to soluble TREM2 (sTREM2) as follows: test anti-hTREM2 antibodies were coated onto plate wells as capture reagents and a biotinylated IgV-reactive monoclonal antibody, 3.17A9, was used as the detection reagent. Antibody 1.16B8 was used as a control antibody to establish the standard for sTREM2 binding. Plates coated with test or control antibody were incubated with diluted culture supernatant from bone marrow-derived macrophage (BMDM) cultures from transgenic mice expressing hTREM2. sTREM2 is constitutively produced by the BMDM cultures expressing hTREM2 and shed into the culture supernatant. Measurements were recorded at 450 nm for detection and 570 nm for background. The 3.17A9/1.16B8 antibody pair was selected over reagents provided in the R&D Systems kit as the commercial reagents were not compatible with sTREM2 detection of some of the antibodies tested. […]

human TREM2 on cells [4] = target: T2, human TREM2 on cells; experiment: cell-based or functional assay; remark: listed apart in the source
[5] = target: T1, soluble monomeric human TREM2; experiment: SPR (Biacore 8K); mutant IgG on anti-human Fab chip, soluble monomeric TREM2
Source text: The resulting library consists of individual IgG clones, each with one mutation per molecule in the heavy chain variable regions. Clones were screened for off-rate (dissociation rate) by SPR in a Biacore™ 8K instrument using anti-human Fab chips to capture mutant IgGs and soluble monomeric TREM2 as ligand.

Kd [1] | koff [1] | kon [1] | EC50, average X04 plaque intensity, human iPSC-derived microglia plaque assay (FIG. 24C) (human TREM2 on cells [2]) | EC50, total Abeta plaque intensity, human iPSC-derived microglia plaque assay (FIG. 24B) (human TREM2 on cells [2]) | phospho-SYK/total SYK relative to anti-gD control, iPSC-derived microglia, 1 hour (human TREM2 on cells [2]) | phospho-SYK/total SYK relative to anti-gD control, iPSC-derived microglia, 4 hours (human TREM2 on cells [2]) | binding result [3] | EC50, Jurkat NFAT luciferase reporter cells (human TREM2 on cells [4]) | IC50, TREM2 shedding inhibition in Jurkat-NFAT reporter cells (sTREM2 ELISA) (human TREM2 on cells [4]) | binding result [5] | Binder | EC50, survival of iPSC-derived microglia (FIG. 23E) (human TREM2 on cells [2])
0.016 nM | 3.5e-05 s⁻¹ | 2.3e+06 M⁻¹ s⁻¹ | 320 nM | 330 nM | 2 fold | > 10 fold | no binding | 0.0245 µg/mL | 0.162 µg/mL | – | hPara.09.v2 hIgG1 N297G (antibody, V domains shown, also called hPara.09.H5.hIgG1.N297G) VH: EVQLVESGGGLVQPGGSLKLSCATSGFPFSNVWLHWVRQASGKGPEWVAHIKAKSDNYATYYAESVKGRFTISRDDSKNTVYLQMNSLKTEDTAVYYCTDILEYWGQGTLVTVSS VL: DVVMTQSPLSLPVTPGEPASISCRSSRSLLTSKGITSLYWYLQKPGQSPQLLIYRMSNLASGIPDRFSGSGSGTDFTLKISRVEAEDVGVYYCAQFLVYPYTFGQGTKVEIKR | 0.065 nM
– | – | – | – | – | – | – | – | – | – | no binding | 3.10C2 D101E mutant IgG (antibody, name in Kabat numbering, V domains shown, IgG captured on anti-human Fab chip) VH: EVQLVETGGSLVQPGKSLKLTCATSGFPFSNVWMHWVRQSPEKQLEWIAHIKAKSDNYATYYAESVKGRFTISRDDSKTSIYLQMNSLKEDDTAIYYCTGLEYWGQGVMVTVSS VL: DTVLTQAPLSLSVTPGESASISCRSSKSLLGVRDITSLYWYLQKPGKSPQLLIYRMSNLASGVPDRFSGSGSETDFTLKISEVETEDVGVYYCAQFLRYPYTFGPGTKLELK | –
